The source of these data is article PMC7961048 (2021).

Read-outs that look alike come from different tables or passages of the source. Non-standard residues stand in square brackets, D forms with d. No end group written: not given here. *: point of attachment. Biotin = O=C1N[C@H]2[C@H](CS[C@H]2CCCCC(=O)*)N1; pT = C[C@@H](OP(=O)(O)O)[C@H](N)C(=O)O; ttds = NCCCOCCOCCOCCCNC(=O)CCC(=O)*

The target in test [1] is T1, full-length human 14-3-3σ fused to the C terminus of MBP (human, UniProt P31947 1-248).
T1 chain: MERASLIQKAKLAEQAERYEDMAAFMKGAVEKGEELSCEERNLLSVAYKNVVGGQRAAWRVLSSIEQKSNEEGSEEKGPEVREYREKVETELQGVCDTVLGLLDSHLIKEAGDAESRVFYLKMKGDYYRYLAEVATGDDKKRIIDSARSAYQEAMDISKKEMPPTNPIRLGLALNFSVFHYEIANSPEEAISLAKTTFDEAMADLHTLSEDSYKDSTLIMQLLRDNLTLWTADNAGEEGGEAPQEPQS
The test is described as follows: FP.

Test [2] addresses T2, full-length human 14-3-3η fused to the C terminus of MBP (human, UniProt Q04917 1-246).
T2 chain: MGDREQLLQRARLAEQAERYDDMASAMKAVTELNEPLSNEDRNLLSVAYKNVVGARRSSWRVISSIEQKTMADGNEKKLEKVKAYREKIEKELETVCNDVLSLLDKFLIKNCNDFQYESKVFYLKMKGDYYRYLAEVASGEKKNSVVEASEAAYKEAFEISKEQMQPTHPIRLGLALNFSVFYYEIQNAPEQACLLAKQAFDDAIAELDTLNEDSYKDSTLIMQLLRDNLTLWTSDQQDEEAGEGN
The test is described as follows: FP.

Test [3] deals with T3, full-length human 14-3-3γ fused to the C terminus of MBP (human, UniProt P61981 1-247).
T3 chain: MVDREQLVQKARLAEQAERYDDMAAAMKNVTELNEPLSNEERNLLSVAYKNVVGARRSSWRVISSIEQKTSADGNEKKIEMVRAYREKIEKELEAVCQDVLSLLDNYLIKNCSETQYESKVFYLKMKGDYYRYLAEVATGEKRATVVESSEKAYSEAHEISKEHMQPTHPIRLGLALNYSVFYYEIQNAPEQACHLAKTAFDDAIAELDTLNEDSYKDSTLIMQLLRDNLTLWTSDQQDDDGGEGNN
The test is described as follows: FP.

The target in test [4] is T4, full-length human 14-3-3β fused to the C terminus of MBP (human, UniProt P31946 1-246).
T4 chain: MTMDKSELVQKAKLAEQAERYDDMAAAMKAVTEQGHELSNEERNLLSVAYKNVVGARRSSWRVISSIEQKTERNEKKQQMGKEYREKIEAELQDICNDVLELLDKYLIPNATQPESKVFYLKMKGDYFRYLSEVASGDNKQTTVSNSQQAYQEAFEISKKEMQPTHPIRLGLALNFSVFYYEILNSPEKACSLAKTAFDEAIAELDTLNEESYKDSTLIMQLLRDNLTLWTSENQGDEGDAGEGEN
The test is described as follows: FP.

The target of test [5] is T5, full-length human 14-3-3τ fused to the C terminus of MBP (human, UniProt P27348 1-245).
T5 chain: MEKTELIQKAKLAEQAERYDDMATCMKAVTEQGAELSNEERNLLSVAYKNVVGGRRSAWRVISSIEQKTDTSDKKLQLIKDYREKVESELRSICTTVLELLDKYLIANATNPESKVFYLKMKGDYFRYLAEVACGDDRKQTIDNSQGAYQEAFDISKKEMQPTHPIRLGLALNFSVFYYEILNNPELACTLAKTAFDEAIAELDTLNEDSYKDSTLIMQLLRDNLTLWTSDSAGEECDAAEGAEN
The test is described as follows: FP.

The target in test [6] is T6, full-length human 14-3-3ε fused to the C terminus of MBP (human, UniProt P62258 1-255).
T6 chain: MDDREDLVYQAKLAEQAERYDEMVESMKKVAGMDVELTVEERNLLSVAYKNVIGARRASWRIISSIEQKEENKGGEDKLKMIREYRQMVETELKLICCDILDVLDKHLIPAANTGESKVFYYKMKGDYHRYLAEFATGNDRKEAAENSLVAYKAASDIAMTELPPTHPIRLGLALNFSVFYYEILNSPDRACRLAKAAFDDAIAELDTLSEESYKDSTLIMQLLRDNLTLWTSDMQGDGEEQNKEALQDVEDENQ
The test is described as follows: FP.

The target in test [7] is T7, full-length human 14-3-3ζ fused to the C terminus of MBP (human, UniProt P63104 1-245).
T7 chain: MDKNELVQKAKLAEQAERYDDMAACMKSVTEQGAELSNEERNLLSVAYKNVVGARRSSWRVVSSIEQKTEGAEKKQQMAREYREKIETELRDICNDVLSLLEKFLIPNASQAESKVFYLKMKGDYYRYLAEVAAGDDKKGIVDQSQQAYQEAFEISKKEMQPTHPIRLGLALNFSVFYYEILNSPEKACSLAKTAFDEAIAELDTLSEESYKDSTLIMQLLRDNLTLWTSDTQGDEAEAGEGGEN
The test is described as follows: FP.

Test [8] addresses T4, full-length human 14-3-3β fused to the …. The test is described as follows: FP.
Test [9] addresses T5, full-length human 14-3-3τ fused to the …. The test is described as follows: FP.
For test [10], the target named is T8, unfused 14-3-3τ devoid of the flexible C-terminal tail (human).
T8 chain: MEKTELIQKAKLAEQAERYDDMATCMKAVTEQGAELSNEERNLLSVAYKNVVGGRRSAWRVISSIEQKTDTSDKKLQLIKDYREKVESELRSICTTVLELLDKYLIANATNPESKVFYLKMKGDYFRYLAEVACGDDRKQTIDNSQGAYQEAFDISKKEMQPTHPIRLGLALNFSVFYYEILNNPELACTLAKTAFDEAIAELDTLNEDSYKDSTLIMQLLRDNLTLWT
The test is described as follows: FP.

Test [11] deals with T3, full-length human 14-3-3γ fused to the …. The test is described as follows: FP; +FSC.
Test [12] concerns the target T7, full-length human 14-3-3ζ fused to the …. The test is described as follows: FP; +FSC.

Regarding {Biotin-ttds}-RLQRRRE[pT]QV [HPV18 E6 phospho-PBM peptide p18E6], the equilibrium dissociation constant (Kd) amounted to 139 µM in test [1]; 23.6 µM in test [2]; 11.1 µM in test [3]; 42.2 µM in test [4]; 37.8 µM in test [5]; 101 µM in test [6]. The Kd in [7] came out at 22.4 µM; in [8], 42.2 µM; in [9] it was 37.8 µM; in test [10], 42.3 µM; in [11] it was 19.3 µM; in [12], 37.3 µM.
In the case of {Biotin-ttds}-SSRTRRE[pT]QL [HPV16 E6 phospho-PBM peptide p16E6], the Kd is above 300 µM in [1]; 80.5 µM in test [2]; 37.2 µM in test [3]; 159 µM in [4]; 144 µM in test [5]; above 300 µM in test [6]. Further, the Kd in test [7] was found to be 73.6 µM; in test [8], 159 µM; in test [9] it was 144 µM; in test [10], 135 µM; in [11], 91.7 µM; in [12], 161 µM.

What is called Kd is the constant that tells how readily two partners part at equilibrium. High values mean weaker binding, low ones tighter binding.
